Assay [1] addresses T1, third intracellular loop of the rat 5-HT1B receptor (amino acids 226-311), GAL4 DNA-binding domain fusion … (rat, UniProt P04386 1-147; P28564 226-311).
T1 construct: Yeast two-hybrid bait in a pAS2-derived vector; also called 5-HT1B receptor-bait; 5-HT1B receptors
The experiment in a line: yeast two-hybrid, co-transformation of p11 prey and bait, -LWH medium and X-gal overlay.

For assay [2], the target named is T2, third intracellular loop of the 5-HT1A receptor (amino acids 218-345), bait construct (rat, UniProt P04386 1-147; P19327 218-345).
T2 construct: Yeast two-hybrid bait in the pAS2-derived vector
The experiment in a line: yeast two-hybrid, growth on -LWH medium and X-gal overlay.

Assay [3] addresses bait control vector (empty plasmid) (UniProt P04386 1-147). The assay is described as above.
The target in assay [4] is T3, third intracellular loop of the 5-HT6 receptor (amino acids 209-265), bait construct (rat, UniProt P04386 1-147; P31388 209-265).
T3 construct: Yeast two-hybrid bait in the pAS2-derived vector
The assay is described as above.

B1: p11 (rat; prey clone from the pACT2 rat brain cDNA library) (other, UniProt P05943 1-95, looked up)
chain: MPSQMEHAMETMMLTFHRFAGEKNYLTKEDLRVLMEREFPGFLENQKDPLAVDKIMKDLDQCRDGKVGFQSFLSLVAGLIIACNDYFVVHMKQKK
notes: Yeast two-hybrid prey; identified by BLAST search of the prey inserts; also called p11 prey; annexin-II light chain; not shown: fusion partner encoded by the pACT2 prey vector
With B1, the binding result in assay [1] is “binds”; in assay [2] it was “no binding”; in assay [3] it was “no binding”; in assay [4], “no binding”.
